In publication PMC9507364, “Tuning the Size of Large Dense‐Core Vesicles and Quantal Neurotransmitter Release via Secretogranin II Liquid–Liquid Phase Separation” (Advanced Science, 2022):

B2: secretogranin II (SgII), His-mCherry tag removed (natural protein, mouse, UniProt Q03517 31-617, looked up)
chain: QRNQLLQKEPDLRLENVQKFPSPEMIRALEYIEKLRQQAHREESSPDYNPYQGVSVPLQLKENGEESHLAESSRDALSEDEWMRIILEALRQAENEPPSAPKENKPYALNLEKNFPVDTPDDYETQQWPERKLKHMRFPLMYEENSRENPFKRTNEIVEEQYTPQSLATLESVFQELGKLTGPSNQKRERVDEEQKLYTDDEDDVYKTNNIAYEDVVGGEDWSPIEEKIETQTQEEVRDSKENTEKNEQINEEMKRSGQLGLPDEENRRESKDQLSEDASKVITYLRRLVNAVGSGRSQSGPNGDRAARLLQKPLDSQSIYQLIEISRNLQIPPEDLIEMLKAGEKPNGLVEPEQDLELAVDLDDIPEADLDRPDMFQSKMLSKGGYPKAPGRGMVEALPDGLSVEDILNVLGMENVVNQKSPYFPNQYSQDKALMRLPYGPGKSRANQIPKVAWIPDVESRQAPYENLNDQELGEYLARMLVKYPELLNTNQLKRVPSPVSSEDDLQEEEQLEQAIKEHLGPGSSQEMERLAKVSKRIPVGSLKNEDTPNRQYLDEDMLLKVLEYLNQEQAEQGREHLAKRAMENM
notes: signal peptide in the construct; residues 1-617 (total of 617 amino acids; 1-30 is the signal peptide); Non-tagged proteins were made by cutting off His-mCherry with PreScission protease; The SPR methods say only 'Purified SgII', without the state of the tag; also called CgC; SgII_(1–617); source: HEK293S cells, BacMam baculovirus; purified (Ni-NTA, PreScission protease, Superose 6 Increase); not …

Tests used:
[1] = molecular target: B2; experiment: SPR; Biacore T200, 25 °C; purified SgII immobilised on a CM5 chip by amine coupling; SgIII injected as analyte, 2 to 1000 nM in twofold dilutions; 25 mM Tris pH 7.5, 150 mM NaCl, 0.05% P20; dissociation constant calculated in affinity mode; conditions: both partners purified
[2] = molecular target: the molecule itself; experiment: SEC; Superose 6 Increase 10/300 GL; 25 mM Tris pH 7.5, 500 mM NaCl; self-association

B1: Secretogranin III (SgIII) (natural protein)
chain: not shown
notes: source: HEK293S cells, BacMam baculovirus; purified
B1 showed a Kd [1] of 21.4 nM.

B2: binds [2].

B3: mCherry-tagged SgII (SgII-mCherry) (natural protein, mouse, UniProt Q03517 31-617, looked up)
chain: QRNQLLQKEPDLRLENVQKFPSPEMIRALEYIEKLRQQAHREESSPDYNPYQGVSVPLQLKENGEESHLAESSRDALSEDEWMRIILEALRQAENEPPSAPKENKPYALNLEKNFPVDTPDDYETQQWPERKLKHMRFPLMYEENSRENPFKRTNEIVEEQYTPQSLATLESVFQELGKLTGPSNQKRERVDEEQKLYTDDEDDVYKTNNIAYEDVVGGEDWSPIEEKIETQTQEEVRDSKENTEKNEQINEEMKRSGQLGLPDEENRRESKDQLSEDASKVITYLRRLVNAVGSGRSQSGPNGDRAARLLQKPLDSQSIYQLIEISRNLQIPPEDLIEMLKAGEKPNGLVEPEQDLELAVDLDDIPEADLDRPDMFQSKMLSKGGYPKAPGRGMVEALPDGLSVEDILNVLGMENVVNQKSPYFPNQYSQDKALMRLPYGPGKSRANQIPKVAWIPDVESRQAPYENLNDQELGEYLARMLVKYPELLNTNQLKRVPSPVSSEDDLQEEEQLEQAIKEHLGPGSSQEMERLAKVSKRIPVGSLKNEDTPNRQYLDEDMLLKVLEYLNQEQAEQGREHLAKRAMENM
notes: signal peptide in the construct; residues 1-617 (total of 617 amino acids; 1-30 is the signal peptide); also called SgII_(1–617) tagged with mCherry; source: HEK293S cells, BacMam baculovirus; purified (Ni-NTA, Superose 6 Increase); not shown: mCherry, C-terminal, kept
B3: binds [2].
